Experiments:
[1] = target: BG505 SOSIP.664 trimer (HIV-1 strain BG505); assay: AUC
[2] = target: BG505 SOSIP.664 201C-433C (HIV-1 strain BG505); assay: AUC

**Q.** Which stoichiometry N (CD4 per trimer) [1] does the source give for “2-domain soluble CD4 (CD4 D1D2) (domain or fragment)” here?
**A.** 3

**Q.** For “2-domain soluble CD4 (domain or fragment)”, which stoichiometry N (CD4 per trimer) [2] is on record?
**A.** 1

**Q.** For 4-domain CD4 (domain or fragment), which stoichiometry N (CD4 per trimer) [2] is on record?
**A.** 1

**Q.** And the stoichiometry N (CD4 per trimer) [1]?
**A.** 2

**Q.** Which stoichiometry N (CD4 per trimer) [1] does the source give for “4-domain soluble CD4 (CD4 D1D4) (domain or fragment)” here?
**A.** 3
